Source: patent US9504755B2, “Multi-arm polymeric alkanoate conjugates” (Nektar Therapeutics, priority 2008, dated 2016)

Columns and labels:
[1] = Plasma and tumor pharmacokinetics in H460 tumor-bearing nude mice; assay type: in vivo, mouse; details: for AUClast, analyte docetaxel, plasma / AUClast, analyte docetaxel, tumor / Tmax, analyte docetaxel, plasma / Tmax, analyte docetaxel, tumor / Cmax, analyte docetaxel, plasma / Cmax, analyte docetaxel, tumor: single IV; for AUClast, analyte docetaxel, plasma / AUClast, analyte docetaxel, tumor: 25 mg/kg docetaxel or 33 mg/kg conjugate (MTDs); for Tmax, analyte docetaxel, plasma / Tmax, analyte docetaxel, tumor / Cmax, analyte docetaxel, plasma / Cmax, analyte docetaxel, tumor: 25 mg/kg docetaxel or 33 mg/kg conjugate
Experimental: To assess whether the improved antitumor activity was due to greater plasma and tumor docetaxel exposure following 4-ARM-PEG20K-BA-DOC administration, plasma and tumor homogenates were analyzed after a single IV administration of 4-ARM-PEG20K-BA-DOC or docetaxel in mice bearing H460 tumors. In looking at each of 4-ARM-PEG20K-BA-DOC and docetaxel dosed at their respective maximum tolerated doses (MTDs) of 33 and 25 mg/kg, the following was observed. […] The maximum plasma docetaxel concentration with 4-ARM-PEG20K-BA-DOC was 13-fold lower than that with docetaxel.
The objective of this study was to compare docetaxel pharmacokinetics following 4-ARM-PEG20K-BA-docetaxel with that following docetaxel administration, in plasma and tumor tissue of athymic female mice bearing H460 NSCLC tumors and to determine the effects on complete blood counts. This example summarizes the pharmacokinetic results.
H460 tumor cells were grown in vitro and implanted subcutaneously into female HRLN nude mice. When tumor sizes reached between 172 and 288 mg, animals were dosed by intravenous bolus injection with 25 mg/kg docetaxel or 33 mg/kg 4-ARM-PEG20K-BA-docetaxel at a dosing volume of 10 mL/kg. These dose levels correspond to the maximum tolerated doses for docetaxel and 4-ARM-PEG20K-BA-docetaxel administered on a q7d×3 schedule in this tumor model. Blood and tumor samples (n=7 timepoints with n=3/timepoint) were collected from 0 to 7 days after IV injection. Plasma and tumor samples were analyzed for docetaxel and 4-ARM-PEG20K-BA-docetaxel.

[2] = Pharmacokinetics after IV infusion in Sprague-Dawley rats; assay type: in vivo, rat
Experimental: The objective of this study was to assess the pharmacokinetics and excretion of docetaxel and 4-ARM-PEG20K-BA-docetaxel after intravenous infusion to rats.
Pharmacokinetics of 4-ARM-PEG20K-BA-docetaxel and docetaxel were evaluated in male rats (15 rats/dose level) dosed with 5, 10, and 15 mg/kg (30, 60, 90 mg/m^2) 4-ARM-PEG20K-BA-docetaxel or 5 mg/kg (30 mg/m^2) docetaxel. 4-ARM-PEG20K-BA-docetaxel and docetaxel were administered via a femoral vein catheter as 30-min intravenous infusions at 4 mL/kg. Blood samples (n=15 timepoints with n=5 samples/dose level/timepoint) were obtained by jugular venipuncture between pre-dose and 144 hours post-dose.

[3] = Population pharmacokinetic modeling of terminal disposition rate constant, rats; assay type: in vivo; details: rat
Source text: (§1) To further evaluate the sustained plasma docetaxel terminal half-life, a population pharmacokinetic approach was employed.
(§2) While determining the pharmacokinetics of docetaxel after administration of docetaxel or 4-ARM-PEG20K-BA-docetaxel, it was observed that reliable values for the terminal disposition rate constant λz could not be obtained for the majority of animals secondary to fluctuation of plasma docetaxel concentrations between adjacent sampling times and/or the occurrence of incomplete concentration-time profiles due to concentrations being near or at the lower limit of quantification (1 ng/mL). In addition, in Example 14, rats were sampled in groups of 15 using alternating, overlapping sparse sampling schemes across groups to encompass the total duration of sampling. All of these factors contributed to the occurrence of sparse data within a given animal's terminal concentration-time profile.
(§3) To further investigate and compare docetaxel terminal disposition patterns between docetaxel and 4-ARM-PEG20K-BA-docetaxel, population pharmacokinetic methods were applied to data from rats (Example 14) and dogs (Example 15 and in one additional study). This allowed estimation of population λz values and corresponding half-life values for each treatment group in the presence of incomplete data within individual animals. Specifically, data from all animals within a treatment group and all treatment groups were fit with a nonlinear mixed effect pharmacokinetic model using the program Monolix. Plasma docetaxel concentrations following docetaxel or 4-ARM-PEG20K-BA-docetaxel administration, and plasma 4-ARM-PEG20K-BA-docetaxel concentrations following 4-ARM-PEG20K-BA-docetaxel administration were fit with a model specifying zero-order input of the dose over a defined infusion period and biexponential disposition (Monolix PK Model 26). Docetaxel concentration-time data after 4-ARM-PEG20K-BA-docetaxel were fit with a model having first order input, to reflect metabolism of 4-ARM-PEG20K-BA-docetaxel to the active docetaxel metabolite, and biexponential disposition (Monolix PK Model 31). The parameter of interest for this investigation was the population terminal disposition rate constant, λz to supplement the results described above.

[4] = Population pharmacokinetic modeling of terminal disposition rate constant, dogs; assay type: in vivo; details: dog
Source text: as §1, §2, §3
Dogs in the additional study received 7 mg/kg doses of 4-ARM-PEG20K-BA-docetaxel on Days 1 and 22 with serial blood sampling after each dose for determination of plasma 4-ARM-PEG20K-BA-docetaxel and docetaxel concentrations.

[5] = Stability in mouse plasma; assay type: in vitro ADME; details: 37° C.
Experimental: The objective of the study was to assess the stability of 4-ARM-PEG20K-BA-docetaxel in mouse, rat, dog, and human plasma.
4-ARM-PEG20K-BA-docetaxel was spiked ([…]; 60 μM) into heparinized, pooled male mouse, rat, and dog plasma; mixed sex pooled human plasma; and phosphate buffered saline. Triplicate samples were incubated at 37° C. for 0, 15, 30, 60, 120, and 240 min. Aliquots were removed at each timepoint and analyzed for disappearance of 4-ARM-PEG20K-BA-docetaxel and appearance of docetaxel using the validated dog plasma analytical method.

[6] = 19 mg/kg conjugate (extrapolated) vs 25 mg/kg docetaxel
[7] = 33 mg/kg conjugate vs 25 mg/kg docetaxel
[8] = 33 mg/kg conjugate vs 25 mg/kg docetaxel, listed as Conjugate Lot 1
[9] = 33 mg/kg conjugate vs 25 mg/kg docetaxel, listed as Conjugate Lot 2
[10] = single IV 33 mg/kg conjugate, listed as Conjugate Lot 1, 33 mg/kg
[11] = single IV 33 mg/kg conjugate, listed as Conjugate Lot 2, 33 mg/kg
[12] = listed as 4-ARM-PEG20K-BA-docetaxel
[13] = male rats, average over 5, 10, 15 mg/kg
[14] = male rats, single IV dose 5 mg/kg
[15] = male rats, single IV dose 10 mg/kg
[16] = male rats, single IV dose 15 mg/kg
[17] = docetaxel 5 mg/kg or conjugate 5, 10, 15 mg/kg
[18] = additional study, conjugate 7 mg/kg on Days 1 and 22
[19] = docetaxel 0.75 mg/kg or conjugate 0.72, 2, 4 mg/kg

4-ARM-PEG20K-Butanoate-Linked Docetaxel Conjugate [4-ARM-PEG20K-BA-DOC]
AUC, docetaxel in plasma ([1]; 19 mg/kg (58% MTD), extrapolated from the 33 mg/kg dose): 3488^# hr*ng/mL
4-ARM-PEG20K-BA-DOC to Docetaxel Ratio, plasma AUC [1, 6]: 0.6
4-ARM-PEG20K-BA-DOC to Docetaxel Ratio, tumor AUC [1, 6]: 1.3
conjugate AUC, fold lower in tumor compared to plasma ([1]; 33 mg/kg): approximately 2 fold
conjugate Cmax, fold lower in tumor compared to plasma ([1]; 33 mg/kg): 17 fold
Conjugate to Docetaxel ratio, AUC, docetaxel in plasma [1, 7]: 1.0
Conjugate to Docetaxel ratio, AUC, docetaxel in tumor [1, 7]: 2.3
maximum plasma docetaxel concentration, fold lower than with docetaxel [1, 7]: 13 fold
plasma docetaxel AUC compared with docetaxel treatment [1, 7]: similar
tumor docetaxel AUC, fold greater than for docetaxel [1, 7]: 2 fold
maximum plasma docetaxel concentration, fold lower than with docetaxel ([1]; 33 mg/kg conjugate vs 25 mg/kg docetaxel, listed as 4-ARM-PEG20K-BA-docetaxel): about 14 fold
Conjugate to Docetaxel ratio, AUC, docetaxel in plasma [1, 8]: 1.0
Conjugate to Docetaxel ratio, AUC, docetaxel in tumor [1, 8]: 2.3
Conjugate to Docetaxel ratio, Cmax, docetaxel in plasma [1, 8]: 0.08
Conjugate to Docetaxel ratio, Cmax, docetaxel in tumor [1, 8]: 1.3
Conjugate to Docetaxel ratio, AUC, docetaxel in plasma [1, 9]: 0.9
Conjugate to Docetaxel ratio, AUC, docetaxel in tumor [1, 9]: 2.7
Conjugate to Docetaxel ratio, Cmax, docetaxel in plasma [1, 9]: 0.06
Conjugate to Docetaxel ratio, Cmax, docetaxel in tumor [1, 9]: 2.0
conjugate tumor to plasma ratio ([1]; by 168 hr post-dose, 33 mg/kg): about 7
plasma docetaxel concentration ([1]; for up to 168 hr after single IV 33 mg/kg conjugate): above 5 ng/mL
tumor docetaxel concentrations, fold higher than after docetaxel ([1]; from 24 hr post dose through the end of sampling): approximately 5 fold
Tmax, analyte conjugate, plasma ([1]; single IV 33 mg/kg conjugate): 0.5 h
Tmax, analyte conjugate, tumor ([1]; single IV 33 mg/kg conjugate, listed as 4-ARM-PEG20K-BA-docetaxel, 33 mg/kg): ≤ 4 h
AUClast, analyte conjugate, plasma [1, 10]: 1097.606 µg·h/mL
AUClast, analyte conjugate, tumor [1, 10]: 652.823 µg·h/mL
Cmax, analyte conjugate, plasma [1, 10]: 128354 ng/mL
Cmax, analyte conjugate, tumor [1, 10]: 7062 ng/mL
Tmax, analyte conjugate, tumor [1, 10]: 4 h
AUClast, analyte conjugate, plasma [1, 11]: 1852.51 µg·h/mL
AUClast, analyte conjugate, tumor [1, 11]: 718.068 µg·h/mL
Cmax, analyte conjugate, plasma [1, 11]: 118209 ng/mL
Cmax, analyte conjugate, tumor [1, 11]: 7675 ng/mL
AUClast, analyte docetaxel, plasma [1]: 6.013 µg·h/mL
AUClast, analyte docetaxel, tumor [1]: 313,558 hr*ng/mL
AUClast, analyte docetaxel, tumor ([1]; listed as Conjugate Lot 1): 313558 ng·h/mL
AUClast, analyte docetaxel, plasma ([1]; listed as Conjugate Lot 2): 5.57 µg·h/mL
AUClast, analyte docetaxel, tumor ([1]; listed as Conjugate Lot 2): 380617 ng·h/mL
Tmax, analyte docetaxel, plasma [1, 12]: 0.5 h
Tmax, analyte docetaxel, tumor [1, 12]: ≤ 12 h
Cmax, analyte docetaxel, plasma ([1]; listed as Conjugate Lot 1): 195 ng/mL
Cmax, analyte docetaxel, tumor ([1]; listed as Conjugate Lot 1): 2931 ng/mL
Tmax, analyte docetaxel, plasma ([1]; listed as Conjugate Lot 1): 12 h
Tmax, analyte docetaxel, tumor ([1]; listed as Conjugate Lot 1): 12 h
Cmax, analyte docetaxel, plasma ([1]; listed as Conjugate Lot 2): 162 ng/mL
Cmax, analyte docetaxel, tumor ([1]; listed as Conjugate Lot 2): 4623 ng/mL
CL, analyte conjugate, average (±SD) [2, 13]: 0.33 mL/min/kg
Vss, analyte conjugate, average (±SD) [2, 13]: 0.61 ± 0.17 L/kg
AUCinf, analyte conjugate [2, 14]: 250.374 µg·h/mL
AUClast, analyte conjugate [2, 14]: 226.203 µg·h/mL
AUClast, analyte docetaxel [2, 14]: 1.711 µg·h/mL
CL, analyte conjugate [2, 14]: 0.33 mL/min/kg
Cmax, analyte conjugate [2, 14]: 40079 ng/mL
Cmax, analyte docetaxel [2, 14]: 122 ng/mL
T1/2, analyte conjugate [2, 14]: 73 h
Tmax, analyte conjugate [2, 14]: 0.5 h
Tmax, analyte docetaxel [2, 14]: 0.5 h
Vss, analyte conjugate [2, 14]: 0.8 L/kg
AUCinf, analyte conjugate [2, 15]: 437.912 µg·h/mL
AUClast, analyte conjugate [2, 15]: 419.132 µg·h/mL
AUClast, analyte docetaxel [2, 15]: 3.003 µg·h/mL
CL, analyte conjugate [2, 15]: 0.38 mL/min/kg
Cmax, analyte conjugate [2, 15]: 70795 ng/mL
Cmax, analyte docetaxel [2, 15]: 176 ng/mL
T1/2, analyte conjugate [2, 15]: 59 h
Tmax, analyte conjugate [2, 15]: 0.5 h
Tmax, analyte docetaxel [2, 15]: 2.0 h
Vss, analyte conjugate [2, 15]: 0.55 L/kg
AUCinf, analyte conjugate [2, 16]: 895.159 µg·h/mL
AUClast, analyte conjugate [2, 16]: 847.993 µg·h/mL
AUClast, analyte docetaxel [2, 16]: 3.743 µg·h/mL
CL, analyte conjugate [2, 16]: 0.28 mL/min/kg
Cmax, analyte conjugate [2, 16]: 138296 ng/mL
Cmax, analyte docetaxel [2, 16]: 273 ng/mL
T1/2, analyte conjugate [2, 16]: 63 h
Tmax, analyte conjugate [2, 16]: 0.5 h
Tmax, analyte docetaxel [2, 16]: 1.0 h
Vss, analyte conjugate [2, 16]: 0.47 L/kg
plasma docetaxel AUC compared with docetaxel ([2]; rats, equivalent doses (5 mg/kg)): similar
plasma docetaxel half-life, fold longer than after docetaxel [3]: about 4 fold
Mean (SE) λz, plasma docetaxel [3, 17]: 0.00412 (0.001) hr^−1
t½λz, plasma docetaxel [3, 17]: 168 h
plasma docetaxel half-life, fold longer than after docetaxel [4]: about 8 fold
Mean (SE) λz, plasma conjugate [4, 18]: 0.0141 (0.00041) h^−1
Mean (SE) λz, plasma docetaxel [4, 18]: 0.00627 (0.00086) hr^−1
t½λz, plasma docetaxel [4, 18]: 110 h
Mean (SE) λz, plasma docetaxel [4, 19]: 0.00349 (0.0021) hr^−1
t½λz, plasma docetaxel [4, 19]: 199 h
Conjugate remaining at 4 hr (%) ([5]; 60 μM): 72%
Docetaxel released at 4 hr (%) ([5]; 60 μM): 20%
Mass balance (%) ([5]; 4 hr): 92%
